B1: Speckle-type POZ protein (Homo sapiens), O43791 (parent)
chain: MSRVPSPPPPAEMSSGPVAESWCYTQIKVVKFSYMWTINNFSFCREEMGEVIKSSTFSSGANDKLKWCLRVNPKGLDEESKDYLSLYLLLVSCPKSEVRAKFKFSILNAKGEETKAMESQRAYRFVQGKDWGFKKFIRRDFLLDEANGLLPDDKLTLFCEVSVVQDSVNISGQNTMNMVKVPECRLADELGGLWENSRFTDCCLCVAGQEFQAHKAILAARSPVFSAMFEHEMEESKKNRVEINDVEPEVFKEMMCFIYTGKAPNLDKMADDLLAAADKYALERLKVMCEDALCSNLSVENAAEILILADLHSADQLKTQAVDFINYHASDVLETSGWKSMVVSHPHLVAEAYRSLASAQCPFLGPPRKRLKQS
partner: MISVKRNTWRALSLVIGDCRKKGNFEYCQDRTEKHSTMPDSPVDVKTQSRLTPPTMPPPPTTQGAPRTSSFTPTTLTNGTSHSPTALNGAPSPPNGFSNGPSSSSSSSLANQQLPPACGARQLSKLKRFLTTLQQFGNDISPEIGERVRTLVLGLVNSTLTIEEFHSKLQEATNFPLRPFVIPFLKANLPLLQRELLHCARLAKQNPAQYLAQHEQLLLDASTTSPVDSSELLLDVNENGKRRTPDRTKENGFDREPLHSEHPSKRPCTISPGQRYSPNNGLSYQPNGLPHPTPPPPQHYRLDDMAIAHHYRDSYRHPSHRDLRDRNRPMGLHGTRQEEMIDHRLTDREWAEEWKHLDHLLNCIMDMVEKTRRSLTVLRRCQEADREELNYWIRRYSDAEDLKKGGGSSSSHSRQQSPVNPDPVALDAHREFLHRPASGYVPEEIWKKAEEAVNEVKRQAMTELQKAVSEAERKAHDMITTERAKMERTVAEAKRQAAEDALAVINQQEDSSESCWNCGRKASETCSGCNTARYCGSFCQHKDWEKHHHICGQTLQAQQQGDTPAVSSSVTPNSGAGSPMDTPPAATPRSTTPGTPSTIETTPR
B2: Speckle-type POZ protein (Homo sapiens), O43791 (parent)
chain: B1 chain
partner: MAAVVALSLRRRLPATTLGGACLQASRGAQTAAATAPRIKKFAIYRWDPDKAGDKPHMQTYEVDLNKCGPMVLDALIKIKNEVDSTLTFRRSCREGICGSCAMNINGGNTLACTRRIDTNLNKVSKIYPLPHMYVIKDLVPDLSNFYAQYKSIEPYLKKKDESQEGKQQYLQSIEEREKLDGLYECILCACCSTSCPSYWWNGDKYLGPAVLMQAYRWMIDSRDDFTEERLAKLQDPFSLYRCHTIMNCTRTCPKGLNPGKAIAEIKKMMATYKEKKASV
B3: Speckle-type POZ protein (Homo sapiens), O43791 (parent)
chain: B1 chain
partner: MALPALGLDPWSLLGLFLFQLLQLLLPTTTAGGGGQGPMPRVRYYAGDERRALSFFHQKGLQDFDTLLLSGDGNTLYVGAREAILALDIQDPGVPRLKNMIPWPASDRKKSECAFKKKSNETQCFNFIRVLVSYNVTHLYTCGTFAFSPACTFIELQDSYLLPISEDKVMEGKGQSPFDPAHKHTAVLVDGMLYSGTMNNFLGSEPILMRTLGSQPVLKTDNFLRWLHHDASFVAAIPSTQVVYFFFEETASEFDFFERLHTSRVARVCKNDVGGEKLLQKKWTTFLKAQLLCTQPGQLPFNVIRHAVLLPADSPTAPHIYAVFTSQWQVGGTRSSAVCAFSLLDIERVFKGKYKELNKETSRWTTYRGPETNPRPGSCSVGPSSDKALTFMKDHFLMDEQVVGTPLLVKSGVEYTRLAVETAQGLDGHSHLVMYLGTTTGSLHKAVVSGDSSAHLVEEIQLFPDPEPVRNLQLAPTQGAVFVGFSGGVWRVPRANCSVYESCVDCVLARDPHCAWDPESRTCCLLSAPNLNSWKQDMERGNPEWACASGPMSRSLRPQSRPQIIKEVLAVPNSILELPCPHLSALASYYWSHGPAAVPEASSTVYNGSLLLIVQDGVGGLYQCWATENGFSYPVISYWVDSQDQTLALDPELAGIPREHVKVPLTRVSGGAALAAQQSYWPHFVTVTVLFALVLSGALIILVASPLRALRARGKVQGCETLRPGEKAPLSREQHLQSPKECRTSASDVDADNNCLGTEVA
B4: Speckle-type POZ protein (Homo sapiens), O43791 (parent)
chain: B1 chain
partner: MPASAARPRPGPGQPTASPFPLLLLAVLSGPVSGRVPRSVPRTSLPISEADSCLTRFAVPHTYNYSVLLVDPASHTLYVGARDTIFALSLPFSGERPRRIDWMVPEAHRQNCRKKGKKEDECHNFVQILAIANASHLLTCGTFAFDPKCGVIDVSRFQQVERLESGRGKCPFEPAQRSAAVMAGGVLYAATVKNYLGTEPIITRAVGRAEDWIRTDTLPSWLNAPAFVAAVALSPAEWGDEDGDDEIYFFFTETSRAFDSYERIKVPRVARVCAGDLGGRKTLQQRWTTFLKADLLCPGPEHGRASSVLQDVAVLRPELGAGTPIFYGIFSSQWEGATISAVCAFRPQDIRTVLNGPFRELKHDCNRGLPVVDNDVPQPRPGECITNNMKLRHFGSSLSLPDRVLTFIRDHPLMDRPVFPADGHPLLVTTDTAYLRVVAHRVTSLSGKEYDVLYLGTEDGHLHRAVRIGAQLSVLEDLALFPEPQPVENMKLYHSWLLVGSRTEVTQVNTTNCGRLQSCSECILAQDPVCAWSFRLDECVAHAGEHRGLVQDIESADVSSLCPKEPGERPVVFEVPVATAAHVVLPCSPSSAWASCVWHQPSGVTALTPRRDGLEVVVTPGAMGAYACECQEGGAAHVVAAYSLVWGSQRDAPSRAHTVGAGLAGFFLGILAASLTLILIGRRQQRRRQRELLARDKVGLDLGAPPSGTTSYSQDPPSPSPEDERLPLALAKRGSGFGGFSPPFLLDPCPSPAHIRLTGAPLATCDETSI
B5: Speckle-type POZ protein (Homo sapiens), O43791 (parent)
chain: B1 chain
partner: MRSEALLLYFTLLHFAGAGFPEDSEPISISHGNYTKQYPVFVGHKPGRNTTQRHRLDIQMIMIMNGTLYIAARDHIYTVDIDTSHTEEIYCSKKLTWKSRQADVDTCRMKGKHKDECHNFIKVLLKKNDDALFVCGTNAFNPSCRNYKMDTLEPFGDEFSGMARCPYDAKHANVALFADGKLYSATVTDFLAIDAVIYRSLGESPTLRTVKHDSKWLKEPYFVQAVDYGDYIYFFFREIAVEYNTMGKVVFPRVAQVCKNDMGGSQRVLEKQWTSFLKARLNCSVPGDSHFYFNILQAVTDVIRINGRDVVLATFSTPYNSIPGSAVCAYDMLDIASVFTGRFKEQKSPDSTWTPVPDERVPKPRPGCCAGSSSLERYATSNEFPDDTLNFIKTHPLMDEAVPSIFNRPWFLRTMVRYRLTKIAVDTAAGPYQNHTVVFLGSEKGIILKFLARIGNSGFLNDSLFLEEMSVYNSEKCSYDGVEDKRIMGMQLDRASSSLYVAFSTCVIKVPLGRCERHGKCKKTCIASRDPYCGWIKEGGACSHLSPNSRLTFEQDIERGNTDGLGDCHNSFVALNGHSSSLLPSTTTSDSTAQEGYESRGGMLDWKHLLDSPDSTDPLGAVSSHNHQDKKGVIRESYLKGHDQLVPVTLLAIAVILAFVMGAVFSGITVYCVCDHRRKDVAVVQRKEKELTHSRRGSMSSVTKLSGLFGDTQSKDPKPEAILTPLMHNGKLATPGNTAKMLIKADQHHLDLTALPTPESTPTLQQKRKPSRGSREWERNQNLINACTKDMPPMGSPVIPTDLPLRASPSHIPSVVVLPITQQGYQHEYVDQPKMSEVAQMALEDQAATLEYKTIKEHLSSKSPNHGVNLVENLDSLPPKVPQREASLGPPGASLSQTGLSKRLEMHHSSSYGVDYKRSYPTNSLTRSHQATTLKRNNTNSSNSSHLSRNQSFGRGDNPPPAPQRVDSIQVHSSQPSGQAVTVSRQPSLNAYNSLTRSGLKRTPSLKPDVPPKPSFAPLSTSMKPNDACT
B6: Speckle-type POZ protein (Homo sapiens), O43791 (parent)
chain: B1 chain
partner: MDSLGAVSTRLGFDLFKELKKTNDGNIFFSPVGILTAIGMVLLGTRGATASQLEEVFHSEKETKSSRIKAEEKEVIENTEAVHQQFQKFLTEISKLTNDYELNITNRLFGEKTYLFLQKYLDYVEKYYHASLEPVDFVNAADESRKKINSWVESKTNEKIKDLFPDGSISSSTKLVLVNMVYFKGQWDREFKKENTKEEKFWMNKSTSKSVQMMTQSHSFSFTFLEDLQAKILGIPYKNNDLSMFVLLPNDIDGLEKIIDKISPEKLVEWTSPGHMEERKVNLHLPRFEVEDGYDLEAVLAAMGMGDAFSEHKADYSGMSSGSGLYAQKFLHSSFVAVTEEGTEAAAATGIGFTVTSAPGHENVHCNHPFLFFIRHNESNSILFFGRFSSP
B7: Speckle-type POZ protein (Homo sapiens), O43791 (parent)
chain: B1 chain
partner: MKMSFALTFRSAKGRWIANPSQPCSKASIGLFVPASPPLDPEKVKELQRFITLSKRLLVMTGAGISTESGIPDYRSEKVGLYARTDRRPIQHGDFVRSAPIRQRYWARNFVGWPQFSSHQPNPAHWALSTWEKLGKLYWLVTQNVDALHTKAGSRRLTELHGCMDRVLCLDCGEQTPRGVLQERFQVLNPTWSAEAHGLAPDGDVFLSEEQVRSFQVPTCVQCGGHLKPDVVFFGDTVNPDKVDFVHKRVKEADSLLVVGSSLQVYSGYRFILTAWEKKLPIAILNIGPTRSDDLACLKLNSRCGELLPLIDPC

Variants of: B1
Conditions: with mtg8_human RUNX1T1, Q06455

Q: How did the “effect of a mutation on the interaction” value turn out when F133V was run?
A: with no effect

Variants of: B1
Conditions: with mtg8_human RUNX1T1, Q06455
Remark: another data set of the same source

Q: F133V was tested. Which “effect of a mutation on the interaction” value did it give?
A: disrupting interaction strength

Variants of: B2
Conditions: with sdhb_human SDHB

Q: F102C was tested. Which “effect of a mutation on the interaction” value did it give?
A: with no effect

Variants of: B2
Conditions: with sdhb_human SDHB
Remark: another data set of the same source

Q: Which “effect of a mutation on the interaction” value does the source give for F133L here?
A: with no effect

Variants of: B2
Conditions: with sdhb_human SDHB
Remark: another data set of the same source

Q: With Y87C as the variant, how does the “effect of a mutation on the interaction” value read?
A: with no effect

Variants of: B2
Conditions: with sdhb_human SDHB
Remark: another data set of the same source

Q: For F133V, which “effect of a mutation on the interaction” value is on record?
A: with no effect

Variants of: B3
Conditions: with sem4a_human SEMA4A

Q: For F102C, which “effect of a mutation on the interaction” value is on record?
A: with no effect

Variants of: B3
Conditions: with sem4a_human SEMA4A
Remark: another data set of the same source

Q: F133L was tested. Which “effect of a mutation on the interaction” value did it give?
A: with no effect

Variants of: B3
Conditions: with sem4a_human SEMA4A
Remark: another data set of the same source

Q: How did the “effect of a mutation on the interaction” value turn out when Y87C was run?
A: with no effect

Variants of: B3
Conditions: with sem4a_human SEMA4A
Remark: another data set of the same source

Q: With F133V as the variant, how does the “effect of a mutation on the interaction” value read?
A: with no effect

Variants of: B4
Conditions: with sem4f_human SEMA4F

Q: For F102C, which “effect of a mutation on the interaction” value is on record?
A: with no effect

Variants of: B4
Conditions: with sem4f_human SEMA4F
Remark: another data set of the same source

Q: Which “effect of a mutation on the interaction” value does the source give for F133L here?
A: with no effect

Variants of: B4
Conditions: with sem4f_human SEMA4F
Remark: another data set of the same source

Q: With Y87C as the variant, how does the “effect of a mutation on the interaction” value read?
A: with no effect

Variants of: B4
Conditions: with sem4f_human SEMA4F
Remark: another data set of the same source

Q: F133V was tested. Which “effect of a mutation on the interaction” value did it give?
A: with no effect

Variants of: B5
Conditions: with sem6a_human SEMA6A

Q: F102C was tested. Which “effect of a mutation on the interaction” value did it give?
A: with no effect

Variants of: B5
Conditions: with sem6a_human SEMA6A
Remark: another data set of the same source

Q: With F133L as the variant, how does the “effect of a mutation on the interaction” value read?
A: with no effect

Variants of: B5
Conditions: with sem6a_human SEMA6A
Remark: another data set of the same source

Q: With Y87C as the variant, how does the “effect of a mutation on the interaction” value read?
A: with no effect

Variants of: B5
Conditions: with sem6a_human SEMA6A
Remark: another data set of the same source

Q: F133V was tested. Which “effect of a mutation on the interaction” value did it give?
A: with no effect

Variants of: B6
Conditions: with spb13_human SERPINB13, Q9UIV8

Q: For F102C, which “effect of a mutation on the interaction” value is on record?
A: with no effect

Variants of: B6
Conditions: with spb13_human SERPINB13, Q9UIV8
Remark: another data set of the same source

Q: Which “effect of a mutation on the interaction” value does the source give for F133L here?
A: with no effect

Variants of: B6
Conditions: with spb13_human SERPINB13, Q9UIV8
Remark: another data set of the same source

Q: Y87C was tested. Which “effect of a mutation on the interaction” value did it give?
A: with no effect

Variants of: B6
Conditions: with spb13_human SERPINB13, Q9UIV8
Remark: another data set of the same source

Q: With F133V as the variant, how does the “effect of a mutation on the interaction” value read?
A: with no effect

Variants of: B7
Conditions: with sir4_human SIRT4, Q9Y6E7

Q: For F102C, which “effect of a mutation on the interaction” value is on record?
A: with no effect

Variants of: B7
Conditions: with sir4_human SIRT4, Q9Y6E7
Remark: another data set of the same source

Q: How did the “effect of a mutation on the interaction” value turn out when F133L was run?
A: with no effect

Source: IntAct's records for PubMed 35512704
